{"source": "patent US12576170B2", "about": "“Rk polypeptide radiopharmaceutical targeting HER2 and preparation method thereof” (BEIJING GILUNTIDE PHARMACEUTICAL CO., LTD., priority 2019, dated 2026)", "key": {"[1]": {"test_system": "MCF7 of no HER2 expression", "assay": "cell binding assay, MCF7 cells", "design": "species or system Human", "method": "(§1) The rk polypeptide radiopharmaceuticals were sampled for radioactive HPLC analysis. The HPLC was conducted in an Agilent 1260 HPLC system equipped with a YMC-Pack ODS-A analytic column (250× 4.6 mm, I.D. S-5 μm, 12 nm), and a 20-min gradient elution was performed at a flow rate of 1 mL/min, wherein the mobile A phase was deionized water (containing 0.05% TFA) and the mobile B phase was acetonitrile (containing 0.05% TFA). The elution gradients were 90% A and 10% B at beginning, and 30% A and 70% B at 20 min. The labeling rate of ^99mTc-HYNIC-PEG4-(Aoc-rk)2 was >95%, and the radiochemical purity was >98% as measured by HPLC with a Sep-Pak C18 column. The results of a binding affinity assay of HYNIC-PEG4-(Aoc-rk)2 to HER2 are shown in FIG. 3: Human breast cancer cells SKBR3 of high HER2 expression and MCF7 of no HER2 expression were used as experimental samples, and ^99mTc-HYNIC-PEG4-(Aoc-rk)2 was used as a radioactive ligand specifically binding to HER2 receptor. In this cell binding assay, the binding capacities of ^99mTc-HYNIC-PEG4-(Aoc-rk)2 to SKBR3 and MCF7 were measured, with a blocking group treated with excessive HYNIC-PEG4-(Aoc-rk)2 to verify the binding specificity of ^99mTc-HYNIC-PEG4-(Aoc-rk)2 to SKBR3."}, "breast cancer": {"test_system": "breast cancer", "type": "in vivo, human patients", "method": "SPECT/CT imaging of ^99mTc-HYNIC-PEG4-(Aoc-rk)2 in breast cancer patients: with approval by the Ethics Review Committee of the Peking Union Medical College Hospital and informed consent, 20 female patients with suspected breast cancer by molybdenum target X-ray or ultrasonography were recruited and subjected to SPECT/CT imaging and PET/CT imaging 1 week before surgery. The patients were administered intravenously with 11.1 MBq (0.3 mCi)/kg body weight of ^99mTc-HYNIC-PEG4-(Aoc-rk)2 30 min before SPECT/CT scan, and 5.6 MBq (0.15 mCi)/kg body weight of ^18F-FDG 60 min before PET/CT scan."}, "HER2 [2]": {"target": "T1, HER2 (Homo sapiens, UniProt P04626)", "assay": "HER2 binding specificity detection at protein and cell level", "conditions": "protein and cellular levels, FIG. 12"}, "[3]": {"design": "species or system NOD SCID mice", "conditions": "mouse, in vivo, iv", "method": "The biodistribution of ^99mTc-HYNIC-PEG4-(Aoc-rk)2 in tumor-bearing mice: NOD SCID mice bearing SKBR3 tumor were randomized with 4 mice in each group. Each group of mice were injected with different ^99mTc-labeled polypeptides via tail vein, and sacrificed at 30 and 60 min after injection. Samples of blood and major organs were collected, weighed and measured for radiological counting, and the decay-corrected percent injection dose rate per gram of tissue (% ID/g) was calculated. The results of the experiment are shown in FIG. 8, in which the uptake in tumor at 30 min was 3.7% ID/g, and the uptake was low in blood and organs other than kidney."}, "[4]": {"test_system": "SKBR3 of high HER2 expression", "assay": "cell binding assay, SKBR3 cells", "design": "species or system Human", "method": "as §1"}, "[5]": {"test_system": "HER2-negative EGFR-positive MDA-MB-468 breast cancer model", "assay": "imaging in HER2-negative/EGFR-positive tumor model", "type": "in vivo", "conditions": "FIG. 13", "from_the_text": "Since EGFR and HER2 are members of the same family and have similar structures, they are difficult to be distinguished by targeting molecules. As such, false positives and false negatives are inevitable when detecting tumors."}, "HER2 [6]": {"target": "T1, HER2", "assay": "correlation between uptake in tumor and HER2 expression level in tumor models", "type": "in vivo, mouse", "design": "tumor cells with different HER2 expression levels, including human breast cancer cell lines SKBR3, MCF7 and MDA-MB-468; endogenous in cells; host or cells: SKBR3, MCF7, MDA-MB-468, HT29, BxPC3 human tumour cells as xenografts in mice", "conditions": "SKBR3 (high), HT29 (moderate), BxPC3 (low HER2) tumor models", "from_the_text": "(§2) Thus the polypeptide is suitable for delayed imaging and more beneficial for tumor diagnosis.\nCorrelation between uptake of ^99mTc-HYNIC-PEG4-(Aoc-rk)2 in tumor and HER2 expression level: tumor cells with different HER2 expression levels, including human breast cancer cell lines SKBR3, MCF7 and MDA-MB-468, human colorectal cancer cell line HT29 and human pancreatic cancer cell line BxPC3, were selected and subjected to flow cytometry for quantitative analysis of HER2 expression in cells. Then the tumor models of the cells were subjected to SPECT/CT imaging, and the uptake in tumor was quantitatively analyzed. Finally, the correlation between HER2 expression and the uptake in tumor was investigated.\nFlow cytometry: The cells were digested using 0.25% EDTA/pancreatin, blocked for 15 min, centrifuged, washed with PBS, and divided into a treatment group and a control group. […] The two groups were incubated for 0.5 h in the dark at 4° C., washed for 3 times using cold PBS, and analyzed on a flow cytometer. The mean fluorescence intensity (MFI) of the bound antibody on each cell was calculated through a standard flow cytometry curve. […]\nAnalysis of correlation between HER2 expression level and uptake in tumor: the linear relationship between HER2 expression level (MFI) and uptake in tumor (% ID/g) was plotted using prism 7.0 software, and the R^2 value was calculated."}, "SKBR3 breast tumor model": {"test_system": "SKBR3 breast tumor model", "design": "species or system NOD SCID mice", "conditions": "mouse, in vivo", "method": "as §2\nSPECT/CT imaging: Different tumor models with similar tumor sizes were selected, administered with 1 mCi ^99mTc-HYNIC-PEG4-(Aoc-rk)2 through tail vein, and subjected to SPECT/CT imaging 0.5 h later. The SPECT images were reconstructed after imaging, fused with the CT image to give 3D images of the mouse, and the tumor lesion was extracted by In VivoScope software for quantitative analysis.\nPreparation of ^99mTc-HYNIC-PEG4-(PEG4-rk) 2:500 μL of a mixture containing 5.0 mg of trisodium triphenylphosphine-3,3′, 3″-trisulfonate (TPPTS), 6.5 mg of tricine, 38.5 mg of disodium succinate hexahydrate, 12.7 mg of succinic acid and 50 μg of HYNIC-PEG4-(PEG4-rk)2 was prepared in a 10 mL vial and lyophilized. 1.0-1.5 mL of Na^99mTcO4 solution (10-35 mCi) was added to the lyophilized powder. The vial was incubated in a water bath at 100° C. for 20-25 min, and cooled at room temperature for 10 min after the reaction is completed to give the rk polypeptide radiopharmaceutical. The rk polypeptide radiopharmaceuticals were sampled for radioactive HPLC analysis. The HPLC was conducted in an Agilent 1260 HPLC system equipped with a YMC-Pack ODS-A analytic column (250× 4.6 mm, I.D. S-5 μm, 12 nm), and a 20-min gradient elution was performed at a flow rate of 1 mL/min, wherein the mobile A phase was deionized water (containing 0.05% TFA) and the mobile B phase was acetonitrile (containing 0.05% TFA). The elution gradients were 90% A and 10% B at beginning, and 30% A and 70% B at 20 min. The labeling rate of ^99mTc-HYNIC-PEG4-(PEG4-rk)2 was >95%, and the radiochemical purity was >98% as measured by a Sep-Pak C18 column."}, "[7]": {"test_system": "HER2-positive model (SKBR3 breast tumor model)", "conditions": "in vivo", "from_the_text": "This is especially critical for breast cancer tumors in situ in the thorax, since the contrast agent ^99mTc-HPArk2 of the present invention is more advantageous in imaging breast cancer lesions in situ.\nThe specific difference of in vivo pharmacokinetics between the present invention and the radiopharmaceutical disclosed in Patent No. CN 109045313 A is shown in FIG. 11. FIG. 11 illustrates the uptake in tumor and comparison of data corresponding to the images in FIG. 10. […] FIG. 11 panel B illustrates the results of calculations from FIG. 11 panel A. The uptakes in tumor and the organs were compared and analyzed. […] As is also seen in FIG. 10, a smaller tumor was visualized by ^99mTc-HPArk2 imaging, and the imaging effect is guaranteed. […] Therefore, the contrast ratio for imaging is better, and particularly, the low uptake in heart and liver in the chest cavity may facilitate clear imaging of the in-situ tumor of the breast cancer."}, "water solubility": {"assay": "water solubility", "type": "physicochemical", "conditions": "compared with refvffly polypeptide"}}}
{"smiles": "CC(C)C[C@@H](NC(=O)[C@@H](CCCNC(=N)N)NC(=O)[C@@H](CC(C)C)NC(=O)[C@@H](CCC(=O)O)NC(=O)[C@@H](Cc1c[nH]c2ccccc12)NC(=O)[C@@H](CC(N)=O)NC(=O)[C@@H](CCCNC(=N)N)NC(=O)CCCCCCCNC(=O)CC[C@H](NC(=O)CCOCCOCCOCCOCCNC(=O)c1ccc(NN)nc1)C(=O)NCCCCCCCC(=O)N[C@H](CCCNC(=N)N)C(=O)N[C@H](CC(N)=O)C(=O)N[C@H](Cc1c[nH]c2ccccc12)C(=O)N[C@H](CCC(=O)O)C(=O)N[C@H](CC(C)C)C(=O)N[C@H](CCCNC(=N)N)C(=O)N[C@H](CC(C)C)C(=O)N[C@H](CCCCN)C(=O)O)C(=O)N[C@H](CCCCN)C(=O)O", "note": "[^99mTc-HYNIC-PEG4-(Aoc-rk)2, metal not drawn]", "values": [{"measurement": "binding rate per 10^5 cells", "setting": "[1]", "result": 1.14, "unit": "% per 10^5 cells"}, {"measurement": "patients with lymph node metastasis in whom metastasis was shown", "setting": "breast cancer; 5 of 6 patients", "result": 83, "unit": "%"}, {"measurement": "patients with pathologically diagnosed breast cancer whose tumor was accurately imaged", "setting": "breast cancer; 14 of 15 patients, 11.1 MBq/kg i.v., 30 min before scan", "result": 93, "unit": "%"}, {"measurement": "adverse effects during the clinical trial", "setting": "breast cancer; human, in vivo", "result": "No adverse effect related to the radiopharmaceutical was found"}, {"measurement": "HER2 specificity", "setting": "HER2 [2]", "result": "good specificity at both protein and cellular levels"}, {"measurement": "tissue uptake at 0.5 h", "setting": "[3]", "result": 3.7, "unit": "%ID/g"}, {"measurement": "binding rate per 10^5 cells, blocking group", "setting": "[4]; SKBR3 blocking group treated with excessive HYNIC-PEG4-(Aoc-rk)2", "result": 1.24, "unit": "% per 10^5 cells"}, {"measurement": "binding rate per 10^5 cells", "setting": "[4]; SKBR3 cells", "result": 4.49, "unit": "% per 10^5 cells"}, {"measurement": "imaging result in HER2-negative EGFR-positive model", "setting": "[5]", "result": "negative result"}, {"measurement": "relation of uptake to HER2 expression level (SPECT/CT)", "setting": "HER2 [6]", "result": "linearly related to the expression level of HER2"}, {"measurement": "tumor visualization in delayed imaging", "setting": "SKBR3 breast tumor model", "result": "still clearly visualized"}, {"measurement": "uptake in tumor (SPECT/CT)", "setting": "SKBR3 breast tumor model", "result": "clearly visible and significantly higher than that of the monomer"}, {"measurement": "uptake in tumor, Herceptin blocking group", "setting": "SKBR3 breast tumor model", "result": "substantially unchanged"}, {"measurement": "uptake in tumor, cold peptide blocking group", "setting": "SKBR3 breast tumor model", "result": "significantly reduced uptake in tumor"}, {"measurement": "whole-body background (SPECT/CT)", "setting": "SKBR3 breast tumor model", "result": "clean whole-body background"}, {"measurement": "hepatic uptake (FIG. 10)", "setting": "[7]", "result": "lowest"}, {"measurement": "ratios of tumor to normal tissues such as blood, heart, liver, spleen, intestine and stomach", "setting": "[7]", "result": "relatively higher"}, {"measurement": "uptake in blood, heart, liver, spleen, intestine, stomach, bone and other tissues", "setting": "[7]", "result": "relatively lower"}, {"measurement": "uptake in tumor (biodistribution, FIG. 11)", "setting": "[7]", "result": "relatively higher uptake in tumor than those of ^99mTc-HP4-ref and ^99mTc-HP24-ref"}, {"measurement": "uptake in tumor (image quantification, FIG. 10)", "setting": "[7]", "result": "higher uptake in tumor than that of ^99mTc-HP24-ref, with no significant difference from ^99mTc-HP4-ref"}, {"measurement": "uptake ratio of tumor to liver", "setting": "[7]", "result": "highest"}]}
{"smiles": "CC(C)C[C@@H](NC(=O)[C@@H](CCCNC(=N)N)NC(=O)[C@@H](CC(C)C)NC(=O)[C@@H](CCC(=O)O)NC(=O)[C@@H](Cc1c[nH]c2ccccc12)NC(=O)[C@@H](CC(N)=O)NC(=O)[C@H](N)CCCNC(=N)N)C(=O)N[C@H](CCCCN)C(=O)O", "note": "[rk polypeptide, Arg-Asn-Trp-Glu-Leu-Arg-Leu-Lys]", "values": [{"measurement": "water solubility", "setting": "water solubility", "result": "superior to that of refvffly polypeptide"}]}
